This is an account of results in publication PMC3258126.

The data set deals with rP20 WT (Bamboo mosaic virus satellite RNA (satBaMV, clone pBSF4)). The data set is described as follows: EMSA.

Consider WT satBaMV RNA transcript, for which the dissociation constant (Kd) is 31 nM.
